Test [1] addresses human mitochondrial ferredoxin 2 (FDX2), holo form with [2Fe-2S] cluster (H. sapiens) (UniProt Q6P4F2). In words: ITC.
Test [2] concerns the target human mitochondrial ferredoxin 1 (FDX1), holo form with [2Fe-2S] cluster (H. sapiens). The test is described as follows: ITC.

Chain of human mitochondrial ferredoxin 2 (FDX2), holo form with [2Fe-2S] cluster (H. sapiens) (Q6P4F2 53-183): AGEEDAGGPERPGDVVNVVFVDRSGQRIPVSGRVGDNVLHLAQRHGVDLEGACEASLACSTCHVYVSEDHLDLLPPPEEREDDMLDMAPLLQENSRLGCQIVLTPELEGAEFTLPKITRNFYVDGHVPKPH
Chain of [Acp]2:[ISD11]2:[NFS1]2 complex (cysteine desulfurase complex) (Q9Y697 53-457): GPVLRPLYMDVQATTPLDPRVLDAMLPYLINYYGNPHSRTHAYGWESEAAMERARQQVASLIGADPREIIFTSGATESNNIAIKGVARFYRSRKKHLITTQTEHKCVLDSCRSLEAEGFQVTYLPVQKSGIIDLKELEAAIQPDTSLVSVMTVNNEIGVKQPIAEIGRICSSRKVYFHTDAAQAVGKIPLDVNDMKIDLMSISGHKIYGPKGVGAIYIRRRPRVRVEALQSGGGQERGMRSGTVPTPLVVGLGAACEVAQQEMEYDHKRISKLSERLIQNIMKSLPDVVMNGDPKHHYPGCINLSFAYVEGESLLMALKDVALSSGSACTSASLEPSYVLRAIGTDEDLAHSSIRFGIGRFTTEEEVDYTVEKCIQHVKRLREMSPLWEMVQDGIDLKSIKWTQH
Chain of [Acp]2:[ISD11]2:[NFS1]2 complex (cysteine desulfurase complex) (Q9HD34 whole entry): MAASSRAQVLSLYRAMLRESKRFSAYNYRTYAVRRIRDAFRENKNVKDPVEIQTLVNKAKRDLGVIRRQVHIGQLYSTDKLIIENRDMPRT
Chain of [Acp]2:[ISD11]2:[NFS1]2 complex (cysteine desulfurase complex) (P0A6A8 2-78): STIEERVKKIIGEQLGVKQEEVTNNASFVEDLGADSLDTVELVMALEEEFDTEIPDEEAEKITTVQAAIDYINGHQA

In the case of “[Acp]2:[ISD11]2:[NFS1]2 complex (cysteine desulfurase complex) (from UniProt Q9Y697 53-457; Q9HD34 1-91; P0A6A8 2-78)”, the values for the Kd in test [1] and in test [2] were 14.9 µM and 41.7 µM, respectively.

Values taken from PMC5267338.
